Substrate in this data set: O=C(O)c1nc(O)ccc1O
As to the kind of experiment: purified protein. It is filed as biochemical, Bordetella bronchiseptica. The note with it: 50 mM PBS pH 7.4 (unit definition says pH 7.0), 25 °C, 0 to 300 μM 3,6DHPA, no added metal stated.

In general, Km refers to the substrate concentration at which the rate is half of its maximum.

B1: PicCRB50 (Bordetella bronchiseptica RB50) (protein)
chain: MTKVRKIAFEEHFTAVGFGDYSKAFVQHLDPGFAAELGARLTDFGAGRLAEMDAAGIDYAILSQTGPGVQGEPDAAVALRRARENNDFLAERIARHPDRFGGFAALPMHDPKTAAAELTRAVRELGFKGSLVNGHTNGVYYDDPAYDAFWEQMQELDVPLYLHPFDAYVLPHAYKGHPELAGATWGWGVETGTHALRLLFGGVFDRFPKLKIILGHMGEGLPFQRWRFDSRFAAYPYGVKLQRAPSEYIGSNILITTSGVCSHPTLVGAIAEMGAEAVMFSIDYPYESTALAVEFIESAPLDAATRELVCYGNAARLFKL
In the case of B1, the Km was 20.41 ± 2.60 µM and the kcat is listed as 7.61 ± 0.53 S^−1.

(Values after publication PMC10142695, “Expression and Characterization of 3,6-Dihydroxy-picolinic Acid Decarboxylase PicC of Bordetella bronchiseptica RB50” (Microorganisms, 2023).)
